Test: soluble on expression in E. coli; label from the status in PepcDB or PDB records

Row | Sequence | soluble on expression in E. coli
1 | MDRNLVQKGDAPPSKRSDPGTEFCVDIVVKGRKTEVPERFRKHVAEKLKLEKIQKLDGKVISLDVEVSKEPNPRQADRCDRVEITLRSRGPVIRAEAAASDPYAALDLAAEKLGARLRKQHDKRFSRRGARRISAAEVADHVPGAATLNGNGDVVPTEKQDGVPTKKIGSLEVQGDGPLVVREKTHVAAPMSLDQALYEMELVGHDFYLFVDSETKEPSVVYRRHAYDYGVIHLTTDTMVTQAHAPDAGDALGGLEHHHHHH | not soluble
2 | MAHHHHHHMEAKFLKLRQEREEQRRHRSKKTGAITLQRQQYEAEAELLEAEVMQLLQEGNVTESQQRIDALRTLVQDTSNSISLTAHEMAKANVILARLQQRVDEKCSGAAPKKFKFSSRLKAKPTSDAEPATPSFSPTGTSDTNEATATATVPIAGTVSSTNGFGNVYGPSTGTDLFISHSKGVFINGCADCAIYCLPIAGSAFLSNCTNCRVYVACHQLRLKGCTNLDLYVWCASTPIIEECDAMRFGPYRCWVGLLSSCTEDGKTYATHAEWVSRVGEIEDTARTEQNYVKVDDFQWVKKRASPHWCVLAREEERASTTVFGPATLPSSSTAHSTVAADH | not soluble
3 | KERERLEEKLEDANERIAELVKLEERQRIARDLHDTLGQKLSLIGLKSDLARKLIYKDPEQAARELKSVQQTARTSLNEVRKIVSSMKGIRLKDELINIKQILEAADIMFIYEEEKWPENISLLNENILSMCLKEAVTNVVKHSQAKTCRVDIQQLWKEVVITVSDDGTFKGEENSFSKGHGLLGMRERLEFANGSLHIDTENGTKLTMAIPNNSK | not soluble
4 | MGSDKIHHHHHHMAFCNNANLLNVFVRHIANNQLRSLAEVATVAHQLKLLKDDFFASDQQAVAVADRYPQDVFAEHTHDFCELVIVWRGNGLHVLNDRPYRITRGDLFYIHADDKHSYASVNDLVLQNIIYCPERLKLNLDWQGAIPGFNASAGQPHWRLGSMGMAQARQVIGQLEHESSQHVPFANEMAELLFGQLVMLLNRHRYTSDSLPPTSSETLLDKLITRLAASLKSPFALDKFCDEASCSERVLRQQFRQQTGMTINQYLRQVRVCHAQYLLQHSRLLISDISTECGFEDSNYFSVVFTRETGMTPSQWRHLNSQKD | not soluble
5 | MSLDIQSLDIQCEELSDARWAELLPLLQQCQVVRLDDCGLTEARCKDISSALRVNPALAELNLRSNELGDVGVHCVLQGLQTPSCKIQKLSLQNCCLTGAGCGVLSSTLRTLPTLQELHLSDNLLGDAGLQLLCEGLLDPQCRLEKLQLEYCSLSAASCEPLASVLRAKPDFKELTVSNNDINEAGVRVLCQGLKDSPCQLEALKLESCGVTSDNCRDLCGIVASKASLRELALGSNKLGDVGMAELCPGLLHPSSRLRTLWIWECGITAKGCGDLCRVLRAKESLKELSLAGNELGDEGARLLCETLLEPGCQLESLWVKSCSFTAACCSHFSSVLAQNRFLLELQISNNRLEDAGVRELCQGLGQPGSVLRVLWLADCDVSDSSCSSLAATLLANHSLRELDLSNNCLGDAGILQLVESVRQPGCLLEQLVLYDIYWSEEMEDRLQALEKDKPSLRVIS | soluble
6 | GMASEFDLIQRYFRRAHPSAVLGVGDDAALIQPSPGMELAVSADMLVANTHFYPNIDPWLIGWKSLAVNISDMAAMGAQPRWATLTIALPEADEDWISKFAAGFFACAAQFDIALIGGDTTRGPLTISVQIMGETPPGASLLRSTARADDDIWVSGPLGDAALALAAIQGRYPLSDTELAACGKALHQPQPRVVLGQALRGLAHSALDISDGLLADLGHILEHSQVGAEVWLKAIPKSEVVSAHSQEVAIQKMILSGGDDYELCFTASTQHRQQIADIGRQLSLDMAVIGRITDTQQLVIHGLDDAPLTLKEHGFDHFA | soluble
7 | MAKRGRKRKVSKDEENTTPEPEMKKKADEKVVELDEKDWMPSAALEFFENENFKEIVENLSHLDNSVTLVGPFRKLRGESDADGTDLIMLDREMTDLPEMQTFMKCSHGRYAFWRDKPNDKKPVIVFMDLKTIPDLSVVGNEIRHAILDFCTRCSKCIDCSAKSKAANSKIQSFFTPSKISSEVKEVLKHREKTTVRGISGPGMLIDVVPTGNSGKKNKKNERTGYRDLSKNAYCINIEHLVRSLRLCQTKEQEEKVLDFVYGLMNEINICNDEGDFGNGLELGHILFLANMKAVADPMMITLHIAYKNLHRPDFAKILDLTLSLRDQQEEAT | soluble
8 | MRAVAEQARVKTLRIQPRAMALPPDELAECARTAVNEALADLRSAMPSDAGPGVDPAAALEYLNQVQVEGLRTLELVTGALEQAMAQIRQTAAAHGTPAPHGLHRIVEEVQQTLAAVSRPPQEAPDDLEGTAEAAQGRVRAVAEPGGRIRSLTVQARAMRSPSQELAEHIVTAVNNALDDLQAKTRRETEIVEIDQRRLDELRESAMRQSAEFMRSVSDMINSIQPR | not soluble
9 | MTKVTIKAPSDYLQTDWSGGETNQLFLYPEDGDYKKREFSYRLSTATVALRQTTFTRLDGYHRILMSLDKPITLSDLSHAKEISLAPFQPYAFEGDTRIVSRGTCQDINLMYDDQYQGQLLPVWSDTPFEAPKADCQLLYALSKLTYSVTNQANQELEANHLLVTEQEASLSDLKVCLNQTSPAQTPVAVWAGLWYKT | not soluble
10 | MDWFSWLSRTNLEASLIYEYGLSFSNNELEYEDIAYFNHEFLQSMGISIAKHRLEILKLARRDRKPSPLTARSIFRVLIAIKKTGKCFSEHVRAWIRREESSRALVVVSRSTSSSGNGRWKSARKKRLVMPSNGNGVKEERLLLTNGTPCRLDSFSNPKVSSGYEDDDNHWGNKDVEEKIKWDSMFQNLKPT | soluble
11 | MTEGKRLQQMELPQMKSIWIDEDQEMEKLYGFQVRQRFMNGPSTDSDEDADEDLGIVLVDSKKLALPNKNNIKLPPLPNYMTINPNINSNHKSLTNKKKNFLGMFKKKDLLSRRHGSAKTAKQSSISTPFDFHHISHANGKREDNPLESHEEKHDVESLVKFTSLAPQPRPDSNVSSKYSNVVMNDSSRIVSSSTIATTMDSHHDGNETNNTPNGNKQLDSPTDLEMTLEDLRNYTFPSVLGDSVSEKTNPSSPSVSSFSGKFKPRELSALHTPELGNCFNVDQSLNSPGNRISVDDVLKFYYQCSETSTPRNT | soluble
12 | MKEKVIVIGGGLAGSEAAWRLANEGHRVILYEMRPKKMTPAHKTGNLAELVCSNTLGGLELTTGAGLLKAEMQKLGSLVIEAAKVARVPAGGALGVDRKIFSEYITEKIESHPNITLIREEVKEIPEDEVVVIATGPLTSDALSEKIKELVGYDTLYFYDAIAPIVEAESVDFSKGFWGSRYGKGGDDYFNCVLTEEEYKKFYEELLKAEKVKPKDFEKAVHFEGCLPIEEMAERGYKTLLFGPMKPVGLVDPRTGKEPFAVVQLRKENKEGTLLSLVGFQTKLTYKEQKRVFRLIPCLRNAVFVRLGSMHRNTFIQSNKVLTHYLNLKKKENIFFAGQITGVEGYVASSATGILAGINAGRLARGEKPLKAPTETMLGALVNYIVTKEGELQPMNPVFGLLPPLEKKVRDKKKRKELMAKRALETMEKWIKENNLVPEGLVKVC | soluble

Reference: the DeepSol protein solubility set
